Consider five molecules from patent publication US9012420B2, “Aptamer for chymase, and use thereof” (Ribomic Inc., priority 2009, dated 2015).

Data set [1] deals with T1, chymase (Homo sapiens, UniProt P23946 P23946:22-247).
T1 sequence: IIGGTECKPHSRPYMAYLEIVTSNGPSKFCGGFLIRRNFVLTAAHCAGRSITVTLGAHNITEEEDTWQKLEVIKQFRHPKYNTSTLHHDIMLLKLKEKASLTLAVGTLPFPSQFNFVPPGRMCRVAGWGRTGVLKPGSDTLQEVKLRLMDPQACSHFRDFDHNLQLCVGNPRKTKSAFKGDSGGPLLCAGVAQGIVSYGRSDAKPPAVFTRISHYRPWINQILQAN
As to the kind of experiment: inhibition; Suc-AAPF-MCA, 37 C, solution C. To be noted: tags: recombinant, expressed in yeast, SIGMA. The gist of the method:
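Nucleic acids, serially diluted to 0.0027-2 μM before mixing, were preincubated with substrate in solution C for 5 min at 37 °C. Recombinant chymase started the reaction (final 16.7 nM or 1.67 nM; substrate 100 μM). AMC fluorescence (ex 380/em 460 nm) was followed for 5 (or 30) min; initial slope versus uninhibited velocity gave inhibition.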

Data set [2] concerns the target T1, chymase. As to the kind of experiment: inhibition; angiotensin I; recombinant 0.158. To be noted: tags: human skin mast cell, Calbiochem. Here is the method: (§1) The total volume of solution for an enzyme reaction in the assay was set to 50 μL, and the reaction was performed in solution C buffer. First, 0.3-0.75 ng of chymase (recombinant, (manufactured by SIGMA) or native (manufactured by Calbiochem)) was diluted with solution C to give 5 μL thereof. Here, the recombinant is chymase expressed by yeast, and the native is chymase purified from human skin mast cell. The nucleic acid was serially diluted with solution C at a concentration of 0.0027-2 μM to give 25 μL thereof. The chymase solution (5 μL) and the nucleic acid solution (25 μL) were mixed, and the mixture was incubated at 37° C. for 5 min. […] The whole mixture was centrifuged at 4° C., 14000 rpm for 10 min, and the supernatant (30 μL) was used for the next fluorescence induction reaction.
(§2) The above-mentioned supernatant (30 μL) was added to a 96 well plate (black, manufactured by Costar), a solution (15 μL) of 2% o-phthalaldehyde (manufactured by SIGMA) in methanol and 0.3M NaOH solution (170 μL) were added to each well, and the mixture was incubated at room temperature for 10 min. […] The plate was set on a microplate reader SpectraMax190 (manufactured by Molecular device) and the fluorescence intensity was measured at an excitation wavelength of 355 nm and a fluorescence wavelength of 460 nm.

Data set [3] deals with T1, chymase. As to the kind of experiment: inhibition; angiotensin I; recombinant 0.043. The conditions noted are these: tags: human skin mast cell, Calbiochem; label: 5' biotin. Here is the method:
as §1, §2

The target in data set [4] is T1, chymase. As to the kind of experiment: inhibition; angiotensin I; recombinant 0.370. To be noted: tags: human skin mast cell, Calbiochem. Here is the method:
as §1, §2

The target in data set [5] is T1, chymase. The data set is described as follows: inhibition; angiotensin I; recombinant 0.036. The conditions noted are these: tags: human skin mast cell, Calbiochem. Here is the method:
as §1, §2

The target in data set [6] is T1, chymase. The data set is described as follows: inhibition; angiotensin I; recombinant 0.201. To be noted: tags: human skin mast cell, Calbiochem. Here is the method: as §1, §2

Usually IC50 stands for the concentration at which inhibition is half-maximal.

B1: 72(7) (mixed)
mixed: GGGTTAGAUAGAGTUAAAAACCC
modifications: 2'-F U; 2'-OMe 1-3,7,10,13,16-20; DNA T4,T5,A8,T14,C21-C23; 5' idT; 3' PEG 40 kDa
B1: the IC50 in the data set with chymase [1] amounted to 55 nM; in the data set with chymase [2], 312 nM.

B2: 72(8) (mixed)
mixed: GGGTTAGAUAGAGTUAAAAACCC
modifications: 2'-F U; 2'-OMe 1-3,7,10,13,16-20; DNA T4,T5,A8,T14,C21-C23; 5' and 3' idT
As for B2, the IC50 with chymase [3] turned out to be 97 nM.

B3: 72(6) (mixed)
mixed: GGGTTAGAUAGAGTUAAAAACCC
modifications: 2'-F U; 2'-OMe 1-3,7,8,10,13,16,17,19,20; DNA T4,T5,T14,A18,C21-C23; 5' and 3' idT
Regarding B3, the IC50 with chymase [1] came out at 41 nM; with chymase [4], 573 nM.

B4: 72(1) (mixed)
mixed: GGGTTAGAUAGAGTUAAAAACCC
modifications: 2'-F U; 2'-OMe 1-3,7,10,13,16-20; DNA T4,T5,A8,T14,C21-C23; 5' and 3' idT
In the case of B4, the half-inhibitory concentration (IC50) with chymase [5] is 103 nM.

B5: 72(5) (mixed)
mixed: GGGTTAGAUAGAGTUAAAAACCC
modifications: 2'-F U; 2'-OMe 1-3,7,8,10,13,16,18-20; DNA T4,T5,T14,A17,C21-C23; 5' and 3' idT
With B5, the IC50 came out at 27 nM with chymase [1] and 377 nM in the data set with chymase [6].
